Literature values as cited in patent US20230355537A1, “PROMOTING TRAINED IMMUNITY WITH THERAPEUTIC NANOBIOLOGIC COMPOSITIONS” (Icahn School of Medicine at Mount Sinai, priority 2017, published 2023).

Experiments:
PD-1 = target: T1, PD-1 (Homo sapiens, UniProt Q15116)
T1 construct: A phase II clinical trial in subjects with diffuse large B-cell lymphoma (DLBCL); host or cells: human trial subjects (endogenous PD-1 on their immune cells)

PD-L1 = target: T2, PD-L1 (Homo sapiens, UniProt Q9NZQ7); conditions: in vivo
T2 construct: in subjects with advanced-stage NSCLC, melanoma, RCC, or ovarian cancer; host or cells: human trial subjects (endogenous PD-L1 on tumour and immune cells)
T2 sequence (Q9NZQ7 19-290): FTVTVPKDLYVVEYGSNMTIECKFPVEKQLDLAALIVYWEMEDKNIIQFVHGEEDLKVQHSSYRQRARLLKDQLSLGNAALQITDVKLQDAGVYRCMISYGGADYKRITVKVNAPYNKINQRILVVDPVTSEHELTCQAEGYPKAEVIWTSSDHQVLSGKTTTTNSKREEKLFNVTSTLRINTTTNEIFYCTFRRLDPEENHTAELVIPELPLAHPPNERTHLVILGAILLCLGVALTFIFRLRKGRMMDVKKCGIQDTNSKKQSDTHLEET

T1 sequence (Q15116 25-288): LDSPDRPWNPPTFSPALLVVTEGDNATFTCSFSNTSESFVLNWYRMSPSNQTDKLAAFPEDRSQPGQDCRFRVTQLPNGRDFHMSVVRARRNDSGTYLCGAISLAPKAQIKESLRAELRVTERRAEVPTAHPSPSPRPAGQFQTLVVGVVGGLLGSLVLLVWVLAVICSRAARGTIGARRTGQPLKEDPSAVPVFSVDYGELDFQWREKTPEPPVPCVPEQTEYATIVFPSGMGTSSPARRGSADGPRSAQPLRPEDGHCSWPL

Row | subjects alive (PD-1; DLBCL, preliminary results) [%] | subjects progression-free at the end of the follow-up period (PD-1; DLBCL, preliminary results) [%] | clinical activity (PD-L1) | Substance | activity of natural killer cells (PD-1; in vivo)
1 | 82 | 70 | – | CT-011: humanized IgGl monoclonal antibody against PD-I | augments
2 | – | – | durable clinical activity | Medi 4736: anti-PD-LI antibody | –
